Assay [1] addresses Influenza A/Zhejiang/DTID-ZJU01/2013 (H7N9) polymerase heterotrimer (influenza A/Zhejiang/DTID-ZJU01/2013 (H7N9)) (UniProt M9TI86). The assay is described as follows: SEC-MALS.
For assay [2] the target is unchanged. The assay is described as follows: cryo-EM structure.

For the substance “Influenza A/Zhejiang/DTID-ZJU01/2013 (H7N9) polymerase heterotrimer (from UniProt M9TI86;M9TLW3;X5F427) (complex)”, the stoichiometry N in assay [1] and in assay [2] was 2 each time.
